Among the data in paper PMC6408234 are peak bond lifetime (at ~10 pN force) and fold reduction of the optimal bond lifetime against R4-MHC values, retold here.

In assay [1] the target is 9C-HLA-A2 (NY-ESO-1 157-165 peptide … on HLA-A*02:01 with human β2m). The experiment in a line: biomembrane force probe.
Assay [2] deals with C-C-locked R4-MHC (disulfide-bond-locked MHC mutant) (mouse | human). The experiment in a line: biomembrane force probe.

In the case of 1G4 TCR, the peak bond lifetime (at ~10 pN force) in assay [1] amounted to 1 s. In turn, 2C TCR (wild type) registered a fold reduction of the optimal bond lifetime against R4-MHC in assay [2] of 2 fold.
